Data: US20240190990A1 (BEIGENE SWITZERLAND, published 2024)
One block for each binder: values may come before it.

Columns and labels:
[1] = target: T1, BSA (Bos taurus, UniProt P02769); experiment: antigen ELISA: antigen coated at 10 ug/ml, HRP anti-mouse IgG [panel B]
T1 construct: coated on the ELISA plate as negative control antigen; also called bovine serum albumin
Protocol: For this experiment, sCEA, CHIM, monkey CEA, CEA-v and BSA were coated in 96-well plates at a high concentration of 10 μg/ml overnight at 4° C. […] The HRP-linked anti-mouse IgG antibody (Cat. No. 7076S, Cell Signaling Technology, USA) and substrate (Cat. No. 00-4201-56, eBioscience, USA) were used for development, and absorbance signal at the wavelength of 450 nm was measured using a plate reader (SpectraMax Paradigm, Molecular Devices, USA).

[2] = target: T2, full-length human CEA on cells (human, UniProt P06731 35-685); experiment: flow cytometry on LOVO cells, Alexa Fluor 647 anti-human IgG Fc
T2 construct: endogenous on MKN45 and LOVO cells, transduced on L929 and CT26 cells; also called CEACAM5; native CEA
T2 sequence: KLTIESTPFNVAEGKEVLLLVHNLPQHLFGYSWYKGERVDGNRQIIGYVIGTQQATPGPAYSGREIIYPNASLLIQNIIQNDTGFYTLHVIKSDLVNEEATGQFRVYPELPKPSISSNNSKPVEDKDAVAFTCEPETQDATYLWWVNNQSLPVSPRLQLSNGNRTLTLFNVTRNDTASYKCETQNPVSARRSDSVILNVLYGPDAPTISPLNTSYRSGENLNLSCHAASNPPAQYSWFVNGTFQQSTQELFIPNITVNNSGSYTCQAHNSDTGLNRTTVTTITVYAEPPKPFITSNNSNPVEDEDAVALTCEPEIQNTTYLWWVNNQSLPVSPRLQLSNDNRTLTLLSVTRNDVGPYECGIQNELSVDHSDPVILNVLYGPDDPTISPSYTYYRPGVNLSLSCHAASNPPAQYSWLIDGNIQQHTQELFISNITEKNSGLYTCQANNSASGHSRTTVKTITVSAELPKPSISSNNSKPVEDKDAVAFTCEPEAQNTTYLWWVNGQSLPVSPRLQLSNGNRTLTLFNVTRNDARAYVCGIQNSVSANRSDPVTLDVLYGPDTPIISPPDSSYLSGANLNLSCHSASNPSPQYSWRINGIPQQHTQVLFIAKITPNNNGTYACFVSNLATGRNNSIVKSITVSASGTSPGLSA
Protocol: For this experiment, anti-human IgG (Fc) antibody was immobilized on an activated CM5 biosensor chip (Cat. No. BR100839, GE Life Sciences). Anti-CEA antibodies were flowed over the chip surface and captured by anti-human Fab antibody. […] For flow cytometry, CEA-expressing cells (10⁵ cells/well) were incubated with various concentrations of purified affinity-matured antibodies, followed by binding with Alexa Fluro-647-labeled anti-hu IgG Fc antibody (Cat. No. 409320, BioLegend, USA). Cell fluorescence was quantified using a flow cytometer (Guava easyCyte™ 8HT, Merck-Millipore, USA). The equilibrium dissociation constant (KD) was calculated as the ratio koff/kₒₙ.

[3] = target: T2, full-length human CEA on cells; experiment: cell-based or functional assay
[4] = target: T3, CEACAM7 on transfected HEK293 cells (human, UniProt Q14002 36-242); experiment: flow cytometry on transiently transfected HEK293 cells, Alexa Fluor 647 anti-human IgG Fc [panel B]
T3 sequence: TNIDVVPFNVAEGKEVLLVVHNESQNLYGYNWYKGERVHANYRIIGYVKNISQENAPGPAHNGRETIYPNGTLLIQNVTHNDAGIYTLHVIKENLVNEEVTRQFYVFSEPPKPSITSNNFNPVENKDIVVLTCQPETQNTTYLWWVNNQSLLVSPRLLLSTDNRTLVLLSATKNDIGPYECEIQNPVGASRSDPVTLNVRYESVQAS
Protocol: (§1) Cell fluorescence was quantified using a flow cytometer (Guava easyCyte™ 8HT, Merck-Millipore, USA). For antigen ELISA, CEACAM1(SEQ ID NO:64) (Cat. No. 10822-H08H, Sino Biological, China), CHIM (SEQ ID NO: 63), CEA (SEQ ID NO:55) or CEACAM6 (SEQ ID NO:57) were coated in 96-well plates at a concentration of 10 μg/ml overnight at 4° C. The HRP-linked anti-human Fc (Fc specific) IgG antibody (Cat. No. A0170, Sigma, USA) and substrate (Cat. No. 00-4201-56, eBioscience, USA) were used for development, and absorbance signal at the wavelength of 450 nm was measured using a plate reader (SpectraMax Paradigm, Molecular Devices, USA).

[5] = target: T4, CEACAM8 on transfected HEK293 cells (human, UniProt P31997 35-320); experiment: as above
T4 sequence: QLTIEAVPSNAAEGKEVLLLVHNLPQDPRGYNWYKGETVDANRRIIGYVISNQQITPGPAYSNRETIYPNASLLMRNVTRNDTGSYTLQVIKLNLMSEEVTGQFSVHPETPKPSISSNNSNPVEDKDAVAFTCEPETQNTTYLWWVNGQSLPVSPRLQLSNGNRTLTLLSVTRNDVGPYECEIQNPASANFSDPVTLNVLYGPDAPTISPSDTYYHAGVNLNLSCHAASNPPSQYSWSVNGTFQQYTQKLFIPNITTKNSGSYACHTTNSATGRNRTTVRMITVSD
Protocol: as §1

[6] = target: T2, full-length human CEA on cells; experiment: flow cytometry on MKN45 cells, Alexa Fluor 647 anti-human IgG Fc
Protocol: For flow cytometry, CEA-expressing MKN45 cells (10⁵ cells/well) were incubated with various concentrations of purified affinity-matured antibodies, followed by binding with Alexa Fluro-647-labeled anti-hu IgG Fc antibody (Cat. No. 409320, BioLegend, USA). Cell fluorescence was quantified using a flow cytometer (Guava easyCyte™ 8HT, Merck-Millipore, USA).

T1 sequence (P02769 25-607 limits assumed): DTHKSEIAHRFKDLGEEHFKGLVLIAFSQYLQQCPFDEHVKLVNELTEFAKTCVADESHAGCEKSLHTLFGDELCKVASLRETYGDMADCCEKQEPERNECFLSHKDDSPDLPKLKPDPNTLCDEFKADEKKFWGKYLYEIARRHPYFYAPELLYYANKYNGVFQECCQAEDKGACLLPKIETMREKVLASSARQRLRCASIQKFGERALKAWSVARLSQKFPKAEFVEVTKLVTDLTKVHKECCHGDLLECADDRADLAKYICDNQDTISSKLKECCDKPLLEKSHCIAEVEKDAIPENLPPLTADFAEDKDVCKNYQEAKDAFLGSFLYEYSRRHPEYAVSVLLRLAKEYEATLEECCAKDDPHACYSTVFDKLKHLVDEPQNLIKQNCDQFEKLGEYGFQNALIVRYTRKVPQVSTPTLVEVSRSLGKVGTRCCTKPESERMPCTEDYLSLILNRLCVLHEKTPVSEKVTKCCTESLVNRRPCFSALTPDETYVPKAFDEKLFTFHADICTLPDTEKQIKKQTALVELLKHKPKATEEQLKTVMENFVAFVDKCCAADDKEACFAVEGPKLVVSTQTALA

binding result [1]: no binding
B1: BGA13 (antibody, V domains shown)
VH: QVQLQQSGAELAKSGASVKMSCKASGYIFTSYWLHWVKQRPGQGLEWIGYINPNTGYTNYSQKFKDKATLTADKSSSTAYMQLSSLTSEDSAVYYCAREYGNYNYPLDYWGQGTSVTVSS
VL: DIQMTQSPASLSASVGETVTITCRASENIYGYLAWYQQKQGKSPQLLVFNAKNLVEGVPSRFSGSGSGTQFSLKINSLQPEDFGSYYCQHHYGTPYTFGGGTKLEIK
notes: murine monoclonal IgG purified from hybridoma supernatant; also called murine anti-CEA antibody BGA13

EC50 (read off the curve) [2]: ~1 nM
ADCC (LDH release), EC50 [3]: ~0.0067 µg/mL
B2: BGA113 (antibody, human IgG1, V domains shown)
VH: QVQLVQSGAEVKKPGASVKVSCKASGYIFTSYYLHWVRQAPGQGLEWIGYINPQTGYTSYAQKFQGRVTMTRDTSTSTVYMELSSLRSEDTAVYYCAREYGNYNYPLDYWGQGTLVTVSS
VL: DIQMTQSPSSLSASVGDRVTITCRASENQYGYLAWYQQKPGKVPKLLIYNYKNLVEGVPSRFSGSGSGTDFTLTISSLQPEDVATYYCQHHLGTPYTFGQGTKVEIK
notes: W33Y (VH), T51Y (VL) on BGA131F-ph-M; wild-type human IgG1 format

EC50 (read off the curve) [2]: ~6 nM
B3: BGA131F (antibody, human IgG1, V domains shown)
VH: QVQLVQSGAEVKKPGASVKVSCKASGYIFTSYWLHWVRQAPGQGLEWIGYINPQTGYTSYAQKFQGRVTMTRDTSTSTVYMELSSLRSEDTAVYYCAREYGNYNYPLDYWGQGTLVTVSS
VL: DIQMTQSPSSLSASVGDRVTITCRASENIYGYLAWYQQKPGKVPKLLIYNAKNLVEGVPSRFSGSGSGTDFTLTISSLQPEDVATYYCQHHYGTPYTFGQGTKVEIK
notes: BGA131 with N54Q, N59S, S61A in VH; human IgG1 / kappa format

EC50 (read off the curve) [2]: ~5 nM
B4: BGA131F-ph-M (antibody, V domains shown)
VH: QVQLVQSGAEVKKPGASVKVSCKASGYIFTSYWLHWVRQAPGQGLEWIGYINPQTGYTSYAQKFQGRVTMTRDTSTSTVYMELSSLRSEDTAVYYCAREYGNYNYPLDYWGQGTLVTVSS
VL: DIQMTQSPSSLSASVGDRVTITCRASENQYGYLAWYQQKPGKVPKLLIYNTKNLVEGVPSRFSGSGSGTDFTLTISSLQPEDVATYYCQHHLGTPYTFGQGTKVEIK
notes: BGA13-1F heavy chain with a selected kappa light chain, IgG; also called BGA1311F-ph-M

EC50 (read off the curve) [6]: ~0.5 µg/mL
B5: BGA113K (antibody, human IgG1, V domains shown)
VH: QVQLVQSGAEVKKPGASVKVSCKASGYIFTSYYLHWVRQAPGQGLEWIGYINPQTGKTSYAQKFQGRVTMTRDTSTSTVYMELSSLRSEDTAVYYCAREYGNYNYPLDYWGQGTLVTVSS
VL: DIQMTQSPSSLSASVGDRVTITCRASENQYGYLAWYQQKPGKVPKLLIYNYKNLVEGVPSRFSGSGSGTDFTLTISSLQPEDVATYYCQHHLGTPYTFGQGTKVEIK
notes: BGA113 with Y57K in the heavy chain; generated in human IgG1 format; also called BGA113 variant Y57K; Y57K
binding result [4]: no binding (tested: 2 ug/ml (from paragraph 184; not on the sheet))
binding result [5]: no binding (tested: 2 ug/ml (from paragraph 184; not on the sheet))
